The values that follow come from patent publication US20240374746A1, “SIRP-ALPHA ANTIBODIES AND CONJUGATES” (Tallac Therapeutics, Inc., priority 2021, published 2024).

The test system of series [1] is RENCA renal carcinoma cells. Kind of series: RENCA syngeneic tumor model, mIgG2a versus mIgG1 Fc conjugates. The format is in vivo, mouse. The note with it: BALB/c mice, 10 mg/kg i.p., 3 doses every 3 days, compared to conjugate with the mIgG1 Fc domain. The text has this:
Experiments using anti-SIRP-α antibody-CpG oligonucleotide conjugate used the mouse CpG oligo 4523 (SEQ ID NO: 121) conjugated to anti-SIRP-α antibody comprising a heavy chain comprising the sequence of […] (SEQ ID NO:90) for mIgG2a or […] (SEQ ID NO:91) for mIgG1 and a light chain comprising the sequence of […] (SEQ ID NO:111). The sequence of the 4523 murine CpG oligonucleotide is tucgtcgtgacgtt-c3, where lower case indicates phosphothioate linkages, bold indicates iodo-uridine, and underlining indicates phosphotriester linker (SEQ ID NO:121). RENCA renal carcinoma cells (ATCC) were cultured in Complete RPMI 1640 (RPMI 1640+10% FBS (Gibco)) at 37° C. and 5% CO2. Cells were detached with Trypsin 0.25% (Gibco) and washed twice with RPMI 1640 (Gibco). Cells were resuspended at 20E6/mL in RPMI 1640 and kept on ice until use. 100 uL of suspended cells were subcutaneously implanted into the right flank of 6-week-old female BALB/c mice (Charles River). Tumor size was measured and recorded twice a week with calipers starting 9 days post implantation until duration of the study, approximately 35 days later. Tumor volume was calculated using the following formula: (length×width×width)/2. Once tumors reached on average 75 mm^3, […], mice were randomized by tumor size and treatments were initiated. […]

For series [2], the system named is RENCA renal carcinoma cells. Kind of series: RENCA mouse syngeneic tumor model refractory to PD-1. The note with it: 10 mg/kg i.p. three times, three days apart, single agent. The format is in vivo. Here is the method: RENCA renal carcinoma cells line (ATCC) was cultured in Complete RPMI (RPMI, 10% FBS, 1× Pen/Strep, 1× Glutamax) at 37° C. and 5% CO2. Cells were detached with Trypsin 0.25% (Gibco) and washed twice with RPMI 1640 (Gibco). Cells were resuspended at 20E6/mL in RPMI 1640 and kept on ice until use. 100 μL of suspended cells were subcutaneously implanted into the right flank of 6-week-old female BALB/c mice (Charles River). Tumor size was measured and recorded twice a week with calipers starting 9 days post implantation until duration of the study, approximately 27 days later. Tumor volume was calculated using the following formula: (length×width×width)/2. Once tumors reached on average 56 mm^3, approximately 9 days post implantation, mice were randomized by tumor size and treatments were initiated. Anti-mSIRP-α conjugated to mT-CpG (heavy chain comprising the sequence of SEQ ID NO:91 and light chain comprising the sequence of SEQ ID NO:111, conjugated to mouse CpG oligo 4523 (SEQ ID NO:121)) was administered intraperitoneally 3 doses every 3 days at 10 mg/kg. In the anti-PD-1 RMP1-14 (BioXcell) treated cohort, dosing was initiated on day 10 post-tumor implantation once tumors reached on average 52 mm. A total of 3 doses 3 days apart at 10 mg/kg were administrated.

The test system of series [3] is MC38 overexpressing mouse SIRPα and parental MC38 colon carcinoma cells. Kind of series: Mouse syngeneic MC38 model with SIRP-α-positive and SIRP-α-negative tumor cells. In kind it is in vivo. The note with it: 1 mg/kg i.p. twice, three days apart; MC38 overexpressing SIRP-α compared with parental MC38. As to the method: Parental MC38 colon carcinoma cells (ATCC) and MC38 overexpressing mouse SIRPα were cultured in Complete Dulbecco's Modified Eagle's Medium (Gibco) (DMEM, 10% FBS, 1% Pen/Strep, 1% Glutmax, 1% sodium pyruvate) at 37° C. and 5% CO2. Cells were detached with Trypsin 0.25% (Gibco) and washed twice with DMEM. Cells were resuspended at 20E6/mL in DMEM and kept on ice until use. 100 μL of suspended cells were subcutaneously implanted into the right flank of 6-week-old female C57/BL6 mice (Charles River). Tumor size was measured and recorded twice a week with calipers starting 4 days post implantation until duration of the study, approximately 17 days later. Tumor volume was calculated using the following formula: (length×width×width)/2. Once MC38 parental and MC38 SIRP-α tumors reached on average 94 mm^3 to 88 mm^3, respectively, approximately 4 days post implantation, mice were randomized by tumor size and treatments were initiated. The anti-SIRP-α mIgG1 conjugated to mTCpG (heavy chain comprising the sequence of SEQ ID NO:91 and light chain comprising the sequence of SEQ ID NO: 111, conjugated to mouse CpG oligo 4523 (SEQ ID NO: 121)) was administered intraperitoneally 2 doses every 3 days at 1 mg/kg.

In series [4] the test system is CT26 mouse colon carcinoma cells. Kind of series: CT26 mouse syngeneic tumor model, alone and in combination with anti-PD-1. The format is in vivo. As to the method: CT26 mouse colon carcinoma cells (ATCC) were cultured in Complete RPMI (RPMI, 10% FBS, 1× Pen/Strep, 1× Glutamax) at 37° C. and 5% CO2. Once cells were 80% confluent, cells were detached with Trypsin 0.25% (Gibco) and washed twice with RPMI 1640 (Gibco). Cells were resuspended at 20E6/mL in RPMI 1640 and kept on ice until use. 100 μL of suspended cells were subcutaneously implanted into the right flank of 6 week old female BALB/c mice (Charles River). Tumor size was measured and recorded twice a week with calipers starting 7 days post implantation until duration of the study, approximately 27 days later. Tumor volume was estimated using the following formula: (length×width×width)/2. Once tumors reached 110 mm^3, approximately 9 days post implantation, mice were randomized by tumor size and treatments were initiated. Anti-mSIRP-α antibody-CpG oligonucleotide conjugate with a heavy chain comprising the sequence of SEQ ID NO:91 and a light chain comprising the sequence of SEQ ID NO: 111, conjugated to mouse CpG oligo 4523 (SEQ ID NO:121), […], 4 days apart, anti-PD-1 […] (BioXcell) at 10 mg/kg twice, 4 days apart as a single agent or in combination with anti-mSIRP-α antibody-CpG oligonucleotide conjugate for a total of two doses 4 days apart and anti-PD-1 twice, two days post anti-mSIRP-α antibody-CpG oligonucleotide conjugate.

Series [5] relates to B16-F10 melanoma cell line. Kind of series: B16F10 mouse syngeneic tumor model, combination with anti-PD-L1. The format is in vivo. The settings on record: 30 mg/kg i.p. in combination with anti-PD-L1 antibody 10 mg/kg, compared to either alone. Here is the method:
B16-F10 melanoma cell line (ATCC) was cultured in Complete Dulbecco's Modified Eagle's Medium (DMEM, 10% FBS, 1% Pen/Strep, 1% Glutamax, 1% Sodium Pyruvate) at 37° C. and 5% CO2. Cells were detached with Trypsin 0.25% (Gibco) and washed twice with DMEM (Gibco). Cells were resuspended at 6E6/mL in DMEM and kept on ice until use. 100 μL of suspended cells were subcutaneously implanted into the right flank of 6-week-old female C57BL/6 mice (Charles River). Tumor size was measured and recorded 2-3 times a week with calipers starting 7 days post-implantation until duration of the study, approximately 17 days later. Tumor volume was calculated using the following formula: (length×width×width)/2. Once tumors reached on average 55 mm^3, approximately 7 days post-implantation, mice were randomized by tumor size and treatments were initiated. The conjugates were administered intraperitoneally 2 doses every 3 days at 30 mg/kg. Anti-PD-L1 was administered intraperitoneally 2 doses every 3 days at 10 mg/kg. […] The anti-mSIRP-α antibody conjugate comprised murine reactive mT-CpG oligonucleotide (SEQ ID NO: 121) conjugated to an anti-SIRP-α antibody comprising a heavy chain comprising the sequence of SEQ ID NO:91 and a light chain comprising the sequence of SEQ ID NO:111. […]

B1: conjugate with the mIgG2a Fc: anti-SIRP-α antibody, heavy chain SEQ ID NO:90 and light chain SEQ ID NO:111, conjugated to mouse CpG oligo 4523 (SEQ ID NO:121) (conjugate)
heavy: DVQLVESGGGVVRPGESLRLSCAASGFTFSSNAMSWVRQAPGKGLEWLAGISAGGSDTYYPASVKGRFTISRDNSKNTLYLQMNTLTAEDTAVYYCARETWNHLFDYWGLGTLVTVSSAKTTAPSVYPLAPVCGDTTGSSVTLGCLVKGYFPEPVTLTWNSGSLSSGVHTFPAVLQSDLYTLSSSVTVTSSTWPSQSITCNVAHPASSTKVDKKIEPRGPTIKPCPPCKCPAPNLLGGPSVFIFPPKIKDVLMISLSPIVTCVVVDVSEDDPDVQISWFVNNVEVHTAQTQTHREDYNSTLRVVSALPIQHQDWMSGKEFKCKVNNKDLPAPIERTISKPKGSVRAPQVYVLPPPEEEMTKKQVTLTCMVTDFMPEDIYVEWTNNGKTELNYKNTEPVLDSDGSYFMYSKLRVEKKNWVERNSYSCSVVHEGLHNHHTTKSFSRTPGRPQGFGPP
light: ALTQPASVSANPGETVKIACSGGDYYSYYYGWYQQKAPGSALVTVIYSDDKRPSDIPSRFSGSASGSTATLTITGVRAEDEAVYYCGGYDYSTYANAFGAGTTLTVLGQPKSSPSVTLFPPSSEELETNKATLVCTITDFYPGVVTVDWKVDGTPVTQGMETTQPSKQSNNKYMASSYLTLTARAWERHSSYSCQVTHEGHTVEKSLSRADCS
DNA: ttcgtcgtgacgtt
modifications: antibody conjugated to CpG oligonucleotide; modified_base 2 OTHER; iodo-uridine; modified_base 1..5 OTHER; phosphorothioate linkages; misc_feature 5^6 phosphotriester linker; modified_base 6..14 OTHER; misc_feature 14 3' spacer C3
With B1, in series [1], the anti-tumor inhibition entry was “reduced anti-tumor inhibition”.

B2: anti-mSIRP-α antibody conjugated with murine reactive mT-CpG: anti-SIRP-α mIgG1, heavy chain SEQ ID NO:91 and light chain SEQ ID NO:111, conjugated to mouse CpG oligo 4523 (SEQ ID NO:121) (conjugate)
heavy: DVQLVESGGGVVRPGESLRLSCAASGFTFSSNAMSWVRQAPGKGLEWLAGISAGGSDTYYPASVKGRFTISRDNSKNTLYLQMNTLTAEDTAVYYCARETWNHLFDYWGLGTLVTVSSAKTTPPSVYPLAPGSAAQTNSMVTLGCLVKGYFPEPVTVTWNSGSLSSGVHTFPAVLQSDLYTLSSSVTVPSSTWPSETVTCNVAHPASSTKVDKKIVPRDCGCKPCICTVPEVSSVFIFPPKPKDVLTITLTPKVTCVVVDISKDDPEVQFSWFVDDVEVHTAQTQPREEQFNSTFRSVSELPIMHQDWLNGKEFKCRVNSAAFPAPIEKTISKTKGRPKAPQVYTIPPPKEQMAKDKVSLTCMITDFFPEDITVEWQWNGQPAENYKNTQPIMDTDGSYFIYSKLNVQKSNWEAGNTFTCSVLHEGLHNHHTEKSLSHSPGRPQGFGPP
light: B1 light
DNA: ttcgtcgtgacgtt
modifications: antibody conjugated to CpG oligonucleotide; modified_base 2 OTHER; iodo-uridine; modified_base 1..5 OTHER; phosphorothioate linkages; misc_feature 5^6 phosphotriester linker; modified_base 6..14 OTHER; misc_feature 14 3' spacer C3
For B2, the anti-tumor response entry is reported as “potent, single-agent anti-tumor response” in series [2]; “enhanced anti-tumor response” in series [4] (suboptimal dose 0.3 mg/kg in combination with anti-PD-1 antibody 10 mg/kg, compared to either alone); “enhanced anti-tumor response” in series [5]. Moreover, the anti-tumor activity result in series [3] was “superior anti-tumor activity”. In addition, in series [4] (1 mg/kg i.p., single agent), the tumor growth inhibition result was “robust tumor growth inhibtion”.
